# According to US20250381289A1, “EGFR AND C-MET BISPECIFIC BINDING AGENTS, CONJUGATES THEREOF AND METHODS OF USING THE SAME” (GENMAB A/S, priority 2024, published 2025):
# Numbering of substitutions follows the chain as printed.
# B1: Onartuzumab: parent cMET mAb; sequences in Table 1 (antibody, V domains shown)
# VH: EVQLVESGGGLVQPGGSLRLSCAASGYTFTSYWLHWVRQAPGKGLEWVGMIDPSNSDTRFNPNFKDRFTISADTSKNTAYLQMNSLRAEDTAVYYCATYRSYVTPLDYWGQGTLVTVSS
# VL: DIQMTQSPSSLSASVGDRVTITCKSSQSLLYTSSQKNYLAWYQQKPGKAPKLLIYWASTRESGVPSRFSGSGSGTDFTLTISSLQPEDFATYYCQQYYAYPWTFGQGTKVEIK
# B2: ABF-46: parent cMET mAb, mouse antibody; sequences in Table 1 (antibody, V domains shown)
# VH: EVKLVESGGGLVQPGGSLRLSCATSGFTFTDYYMSWVRQPPGKALEWLGFIRNKANGYTTEYSASVKGRFTISRDNSQSILYLQMDTLRAEDSATYYCARDNWFAYWGQGTLVTVSA
# VL: DILMTQSPSSLTVSAGEKVTMSCKSSQSLLASGNQNNYLAWHQQKPGRSPKMLIIWASTRVSGVPDRFIGSGSGTDFTLTINSVQAEDLAVYYCQQSYSAPLTFGAGTKLELK
# B3: Nova-5091: parent cMET mAb; sequences in Table 1 (antibody, V domains shown)
# VH: QVQLVQSGAEVKKPGASVKVSCKASGYTFTGYYMNWVRQAPGQGLEWMGIINPWTGNTNYAQKFQGRVTMTRDTSISTAYMELSSLRSEDTAVYYCARDPGFFYYTPSDLWGQGTLVTVSS
# VL: DIELTQPPSVSVAPGQTARISCSGDSIGNKYVHWYQQKPGQAPVLVIYADSDRPSGIPERFSGSNSGNTATLTISGTQAEDEADYYCQSYAHYHDIWVFGGGTKLTVLG
# B4: Nova-5097: parent cMET mAb; sequences in Table 1 (antibody, V domains shown)
# VH: QVQLVQSGAEVKKPGSSVKVSCKASGGTFSSYAISWVRQAPGQGLEWMGGIDPFGTANYAQKFQGRVTITADESTSTAYMELSSLRSEDTAVYYCARVYQDVWGQGTLVTVSS
# VL: DIVMTQSPDSLAVSLGERATINCRSSQSILYGINNNFLGWYQQKPGQPPKLLIYWASTRESGVPDRFSGSGSGTDFTLTISSLQAEDVAVYYCQQYAFGWTFGQGTKVEIK
# B5: Nova-5185: parent cMET mAb; sequences in Table 1 (antibody, V domains shown)
# VH: B4 VH with F54I, G55M, T56G, A57T, N58E
# VL: DIVMTQSPDSLAVSLGERATINCRSSQSILYGINNNFLGWYQQKPGQPPKLLIYWASTRESGVPDRFSGSGSGTDFTLTISSLQAEDVAVYYCQQYAYEPNTFGQGTKVEIK
# B6: Nova-5098: parent cMET mAb; sequences in Table 1 (antibody, V domains shown)
# VH: B4 VH
# VL: B5 VL with Q94L, A97S, Y98D, N101W
# Tested on: EGFR and cMET co-expressed tumor cell lines (A431, A549, MDA-MB-468, MKN-45, NCI-H441, NCI-H1975)
# Assay: Binding activity of parent mAbs by flow cytometry
# Conditions: flow cytometry on tumor cell lines, FIGS. 1A-1F, Table 4; compared with telisotuzumab (teliso)
# Protocol: EGFR and cMET co-expressed tumor cell lines including A431 (ATCC® CRL-1555), A549 (ATCC® CCL-185, Provided by Procell), MDA-MB-468 (ATCC® HTB-132, Provided by Procell), MKN-45 (CL-0292, Provided by Procell), NCI-H441 (ATCC® HTB-174, Provided by COBIOER), NCI-H1975 (ATCC® CRL-5908, Provided by Procell) were selected for evaluating antibody binding activity by flow cytometry.
# A431 was cultured with DMEM medium (Gibco, Cat #C11995500BT) containing 10% FBS. MDA-MB-468, MKN-45, NCI-H441 and NCI-H1975 were cultured with RPMI 1640 medium (Gibco, Cat #11875093) containing 10% FBS. A549 was cultured with F12K medium (Gibco, Cat #21127030) containing 10% FBS. Each antibody was incubated with different cell lines (1×10^5 cells/well) for 30 min in 0.2 mL FACS buffer (1×PBS with 0.1% BSA) at 4° C. After wash, cells were incubated with 100 μL PE-conjugated anti human Fc (Abcam, Ab98596, 1:500 dilution) for 30 min at 4° C. After wash with PBS, cells were resuspended in FACS buffer and analyzed by flow cytometer (Beckman, CytoFLEX).
row,Molecule,binding activity of parent cMET mAbs (summary)
1,B1,"Stronger binding than teliso, tumor promoting activity due to bivalent binding"
2,B2,"Lower activity than teliso, mouse antibody, filed in 2010; inferior choice"
3,B3,No binding activity
4,B4,"Stronger binding than teliso, no clinical validation"
5,B5,"Stronger binding than teliso, seems to have off-target binding"
6,B6,"Stronger binding than teliso, no clinical validation"
